From the DeepSol protein solubility set come the findings set out here.

A short description of the data set: soluble on expression in E. coli; label from the status in PepcDB or PDB records.
Consider “MQGTKIRLMVGGLLLAAASNNVQAEALQPDPAWQQGKLDNGFSWQLLATPQRPSDRIELRLIVNTGSLSENTQEVGFAHLLPRLALMSSASFTPAQLQSLWQQGIDNERPLPPAITSYDFTLYSLSLPNNRPDLLKDALAWLSDTAGNLAVSEQTVNAALNTATDPIATFPQNIQEPWWRYRLKGSSLIGHDPGQPVTQPVDVEKLKQFYQQWYTPDAMTLYVVGNVDSRSIAAQISKAFSELKGKRTAPAAVATLAPLPPEPVSLMNEQAAQDTLSLMWDTPWHPIQDSMALSRYWRSDLAREALFWHIKQVLEKNNQKNLKLGFDCRVQYQRAQCAIHLNTPVENLTANMTFVARELAALRANGLSQAEFDALMTQKNDQLSKLFATYARTDTDILMSQRLRSQQSGVVDIAPEQYQKLRQAFLSGLTLAELNRELKQQLSQDTTLVLMQPKGEPEVNVKALQEIYNGIMAPQTVAEEEVAPAEAVETAPVMPTTAQ”, for which the “soluble on expression in E. coli” value is listed as “not soluble”.
As for “MQHSLGLIEVSGMSLAITVADVMAKTAQIRLIGVERTIGSGWMLVKIAGDVAAVRTALSAGEETARAHQGFVACTTIARPAKGTGELVSTTKPPRAEPVQKITVLPAVALTASAAHTTTGPESVQEDPDAEKAVPPIREAVEGSTGNIIQVDAINDPVETAREISKPNASAKSPPAEYGEKQSVATVKAFPVMGDIATDLDIPTASARSVAVAQQVKPGISLHQFHYQEKPDDETADAGSQQTGETKQAVAISAKLLVTCKICGDPSCPRHKGQPRSRCIHNQKSVLR”, the entry is “not soluble”; as for “MQHSLRSDGAGFYQLACCEYSLSMRKIALSGGFWGGVCRMAMKSIFFMFHQGNRRLTLTAVQGILLRFSLF”, “not soluble”.
Under “MQIDDALLQRLEKLSMLEIKDEHKESVKGHLAEVLGFVENIFALETSALKTDIELCTPLREDEPKSQPNTAKEILSQNKHSQDHYFVVPKIIE” stands “not soluble”; under “MQILKAIGLLMEYPDDELWECRDEALTLIQHDAPMLADFTRELLYAPLLDKQAEWCEVFDRGRATSLLLFEHVHAESRDRGQAMVDLLSQYETVGLHLNCRELPDHLPLYLEYLSVLPEAEAREGLQNIAPILALLGGRLKQRGAPWYQLFDALLTLAGSTLTSDSVTKQIIQESRDDTRQALDAVWEEEQVKFIEDNATTCDSSPLHHYQRRFSQDAAPQYVDVSAGGPK”, “not soluble”; under “MQITSNTRLNELWELYFQTLDKSTSWTFTKESFYNRYLKEPLGKKKLDSIQEHHIMAIIRHLQAEGMATRTVNTTLEILRPLFDFAIKNKALRDNPTRFIVLKKDNLEHHHHHH”, “not soluble”.
As for “MQIVEAIYEDGVLKLLKNLKLKEHSKVIIKVIDEEEIEKILDSRDYLEHHHHHH”, the entry is “not soluble”.
For the sequence “MQIYTADGKLIGEVGEQRRIPVKLADVPQRLIDAFLATEDSRFYDHHGLDPIGIARALFVAVSNGGASQGASTITQQLARNFFLTSEKTIIRKAREAVLAVEIENTLNKQEILELYLNKIFLGYRSYGVAAAAQTYFGKSLNELTLSEMAIIAGLPKAPSTMNPLYSL”, the “soluble on expression in E. coli” value is “not soluble”.
Under “MQKALETKRLTLSYGETIIIDELNLEIPKGEITIFIGSNGCGKSTLLRSLARLLKPTTGDILLDNQAIQSMQTKQIARQMAILPQGPQAPEGLTVLQLVKQGRYPYQTWLKQWSEKDEEMVQNALAATGMTEFAERDVHALSGGQRQRAWIAMTLAQDTDIILLDEPTTYLDMTHQIEVLDLLFELNETEQRTIVMVLHDLNLACRYADNIVAIQDKQIYAQGKPEEVVDEKLVRDVFRMECQISTDPLFGTPLCIPHGKGRRVRKEVAHAMR” stands “not soluble”; under “MQKDALNNVRITDEQVLMTPEQLKAAFPLSLAQEAQIAQSRGIISDIIAGRDPRLLVVCGPCSIHDPETALEYARRFKALAAEVSDSLYLVMRVYFEKPRTTVGWKGLINDPHMDGSFDVEAGLKIARQLLVELVNMGLPLATEALDPNSPQYLGDLFSWSAIGARTTESQTHREMASGLSMPVGFKNGTDGSLATAINAMRAAAQPHRFVGINQAGQVALLQTQGNPHGHVILRGGKAPNYSPADVAQCEKEMEQAGLRPSLMVDCSHGNSNKDYRRQPAVAESVVAQIKDGNRSIIGLMIESNIHEGNQSSEQPRSEMKYGVSVTDACISWEMTDALLREIHKDLSGQLAVRVA”, “not soluble”; under “MQKHWWHKATVYQIYPKSFMDTNGDGIGDLKGITSKLDYLQKLGVMAIWLSPVYDSPMDDNGYDIANYEAIADIFGNMADMDNLLTQAKMRGIKIIMDLVVNHTSDEHAWFIEAREHPDSSERDYYIWCDQPNDLESIFGGSAWQYDDKSDQYYLHFFSKKQPDLNWENANLRQKIYDMMNFWIDKGIGGFRMDVIDMIGKIPAQHIVSNGPKLHAYLKEMNAASFGQHDLLTVGETWGATPEIAKQYSNPVNHELSMVFQFEHIGLQHKPEAPKWDYVKELNVPALKTIFNKWQTELELGQGWNSLFWNNHDLPRVLSIWGNTGKYREKSAKALAILLHLMRGTPYIYQGEEIGMTNYPFKDLNELDDIESLNYAKEAFTNGKSMETIMDSIRMIGRDNARTPMQWDASQNAGFSTADKTWLPVNPNYKDINVQAALKNSNSIFYTYQQLIQLRKENDWLVDADFELLPTADKVFAYLRKVREERYLIVVNVSDQEEVLEIDVDKQETLISNTNESAALANHKLQPWDAFCIKILEHHHHHH”, “soluble”.
Regarding “MQKIDLGNNESLVCGVFPNQDGTFTAMTYTKSKTFKTETGARRWLEKHTVS”, the “soluble on expression in E. coli” value was “soluble”.
Turning to “MQLKTEVFLVEKEILVYIQTKSIGIEDNSIKLKMTPLLKKFANIGDKVYLKHSTFMLPTKIKAKKEDEVLLEFPSLTPEKPLGDRRNVRVLSDPENPVKVRFNEITKEVYDISEVGFSIKCGMEEIDEILKNKEISEVEIYLPNLEEWIKGSARLVNVREFENGDILCGYELFLDTPDEVKVRFYIYERVKEILKGEK”, the “soluble on expression in E. coli” value was “not soluble”.
For “MQLNDSTLFRQQAFIDGDWRDARGGDVIPVSNPANGKPLGNVPKMGAEETRDAINAANRALPAWRALTAKERANILRRWFNLMMEHQDDLARLMTLEQGKPLAEAKGEISYAASFIEWFAEEGKRIYGDTIPGHQADKRLLVIKQPIGVTAAITPWNFPSAMITRKAGPALAAGCTMVLKPASQTPFSALALAELAQRAGIPAGVFNVVTGSAGDIGGELTSNPLVRKLSFTGSTEIGRQLMEQCAKDIKKVSLELGGNAPFIVFDDADLDKAVEGALASKFRNAGQTCVCANRLYVQDGVYDRFAEKLNQAVNKLAVGDGLQADVAIGPLIDEKAVAKVQEHIADALEKGARVITGGEAHKLGGNFFQPTILADVPDNAKVAKEETFGPLAPLFRFSDEADVIRQANDTEFGLAAYFYARDLSRVFRVGEALEYGIVGINTGIISNEVAPFGGIKASGLGREGSKYGIEDYLEIKYMCIGL”, the “soluble on expression in E. coli” value is recorded as “not soluble”.
Turning to “MQLPPVHSVSLSEYFVSGNVIIHETAVIAPGVILEAAPDCQITIEAGVCIGLGSVISAHAGDVKIQEQTAIAPGCLVIGPVTIGATACLGSRSTVFQQDIDAQVLIPPGSLLMNRVADVQTVGASSPTTDSVTEKKSPSTANPIAPIPSPWDNEPPAKGTDSPSDQAKESIARQSRPSTAEAAEQISSNRSPGESTPTAPTVVTTAPLVSEEVQEKPPVVGQVYINQLLLTLFPERRYFSS”, the “soluble on expression in E. coli” value is “not soluble”.
As for “MQLTKLTQEIFDHLYRDISEFRQTFDLPVAAPQTLNSQADTLHTSLAIEELTELAQADNKTEQADAIVDTVYVLMGRLVHLGHAKVEDNLAISYLIDLLLHVAANLNIDFLPCWDEVHSSNMSKVCRSEQEYLDTEKFYAEQGVKLMAVHQGEYIIAKCAEDFISESKTVRQGKVLKSVYYRPANLAALTQ”, the entry is “not soluble”; as for “MQMLIPQRLLLILNPILMMKRKKRKKRKKRRERETMMKIPRILKKLRRKRRTRRKRRKRRKRRRRKRRKRRRKRSPRKRRKRRNKDAFYILIISDPSRSLLFGFRKFSIIIQCLTYFSFHILFHNL”, “soluble”.
For “MQNNVVDSIIIDVLSASTHEKPLCKVITEERVLKLLDLALGVFKAQKPMVEVNAPIKVCGDIHGQFPDLLRLFHRGGWPPTANYLFLGDYVDRGRFSIETIVLLLAYKVKFPCNFFLLRGNHECEFVNKTYGFYEECQKRYQSVRMYAAFQDVFNWLPLTGLIATKILCMHGGLSPLMTKEFTLDTLRKIERPTEGKEGLVADLLWADPISGLSGFMNNQRGAGCGFGRDSVLNLCSEFQLDLVCRAHQVVQDGYEFFAGRKLVTIFSAPHYCGQFDNCAAFMSCDEKLQCSFEILRPTTGRLEIREKPLLKDETN”, the “soluble on expression in E. coli” value is listed as “not soluble”.
“MQNYSVSVTSDRPAPFQQITIPLADGTVLHARLWLPQTPLADRVPLVLEWIPYRQSDGTALADSMMHGYFAEQGIAAARVDIRGSGNSDGLLHDEYLKQEQDDACEVIAWFARQDWCNGNVGLIGISWGGFAGLQIAARRPPALKCIITACSTDNRYTDDVHYMGGALLSDGMQWGSGLFAQLGRPADPKHVGDRWREMWMNRLEGIKEPPLATWMQHTTYDDFWKHGSVCEDYDEIQCAVWAVGGWVDGYTDPILRLMEKLSVPKKALIGPWTHMYPTWGQPGPQIGFLQEAMRWWRHWLMDEDTGIMDEPQLTLWLGKDPKPDTRAPDIGGRWIGLP”: the “soluble on expression in E. coli” value is “not soluble”.
Under “MQQLREGAPADVFISADKKNMDKALADGTVGSSVKVATNSMVMVVPQGNPGKVTSVSDLAGKTVVLCDVQVPCGTISKKLQDANGVEIKAASLESSVSDVLGKVVSGEADAGWVYRTDAAAAGNKVEVIDIPHAQEFENSLYAAVSTHSTSPDEAQKLLDLIVSPKMAQVWKDHGFSPAQ” stands “not soluble”.
As for “MQQNIQYTYSSDPRSGGNQNQQLHGISQFQQNSYQPTTYSNSNANNFHSSNSATFIPNSVTQTPQRRMGEEKSLVNMLDAYFIDSTTPSTSTSWNNQQPVQMSSIQQSVGSYNQQIPQLKVGDVDLQVEGMNVKLSSSPDKGEKDRVKKARQAEAARMRYHRLSNEEKRELNLKRTLAQKRKRQREKEMEELESILRETNDIQEDPDITEQLREKRMRAKWAEAARTRYARMTPEERRAHNTRRRMRQMQNAMSAIKACGMATGDPQKDDEAVRLHIKTQNAKKAEAARQRYHRMNDDEKRVYNQRRTEAFRRRRMEEEMLLAMPIGRINGEALDRAQQIVVRNAKRAEAARLRYQRMTPDQRKVAKQEPKEESWPSHEQSDTQIDHDLDLGDSYNQKRYTPKRRRNEMDDMISAGQMAVGSSGTITMGTGTPAKKDDMDALSSLERDVVKRTQHAQQILLRQRANQSSGTPRSVTPPPQAYIISNGQQQHQQLVGNQGNNGIGQHQVLHQGHMQQQQIQVSHQQSSQSIPQNIYTSGMIIQNQGQQQQGQQQQQGQSQQILNNPYRT”, the entry is “not soluble”; as for “MQRLSPGEFKTLISKERKSHFITPFALVYKTFCDLGYDQKNSDYFLNNPSEYIIAMRKNCWKEFEPFEKEFTTRMLSYLIDEERIKDMSPYDAIRDFTMEYPTHIYDLALSNTQSRRSRAGKEFESILELLMMGAGIPVDVQGAIGKSFFQKNQIGKLVDLVMPGVVQYTSNKRNTMLISAKTTLRERWQEVPEEVNRTGIREMYLATLDDSFSEETINILYEANVVVVTTVENKNFKYKNNNRVLTFEDMLQSAMELSRKWNNVSYTDSEKEEIQQSILKQIEKYSDFPYVVNYYRNRLSALFD”, “soluble”.
On to “MQSAAVSGRLICNGRPAVDVKLKLYENEIFFDRLMEEGRTDSNGQFRVLGSKREITTIDPKLNVYHKCNYNGLCDQKFTIHIPKDYVTSGSQPSRTFDIGTLNLANNFPGQSTDCLN”, for which the “soluble on expression in E. coli” value is recorded as “not soluble”.
